For this assay, the target named is His-tagged human CRMP-2 (residues 1-490) (human) (UniProt Q16555). As to the kind of experiment: SPR. On the technique in general: SPR reads the build-up and loss of mass on a sensor chip optically.

The Kd is the constant that tells how readily two partners part at equilibrium. High values mean lower affinity, low ones higher affinity.

For the substance “Recombinant human calmodulin (from UniProt P0DP23 1-149) (natural protein)”, the equilibrium dissociation constant (Kd) came out at 75 µM.

The values are drawn from paper PMC4428678.
